Data taken from the supplement of paper PMC6757056.
± gives the standard deviation of the averaged measurements.

B1: library; a variant is named by its letters at N, in order (parent)
chain: GCUGUCACCGGUGUAUUACCCUAGUGGUCGACCGGUCUGAUGAGUCUNNNNNNAGACGAAACAGC

Experiments:
[1] = variants of: B1; assay: normalized RNA/DNA level with ligand (relative to sTRSVctl = 100) (log10 (% of sTRSVctl)); ligand: hypoxanthine (xanthine aptamer); higher = less ribozyme self-cleavage, higher mRNA level; details: ligand concentration (+) RNA-Seq: 5 mM, HEK293T, reporter: mCherry (pCS4076), ligand present: yes
Summary of the method: (§1)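 Library plasmids carrying ribozyme switches linked to mCherry, or to eGFP in some ligand experiments, were transfected into HEK293T at 4 µg per 6-well well, with any ligand added 1 h earlier. Seventy-two hours on, total RNA was extracted with EDTA and reverse-transcribed, amplified, barcoded and sequenced. RNA level was RNA over DNA reads normalized to a spiked-in non-cleaving sequence or to the top sequences, then scaled and log-transformed. The top set was 25 sequences, the transform was ×100 and log10, and sequences needed ≥100 DNA reads.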

[2] = variants of: B1; assay: normalized RNA/DNA level without ligand (relative to sTRSVctl = 100) (log10 (% of sTRSVctl)); ligand: hypoxanthine (xanthine aptamer); higher = less ribozyme self-cleavage, higher mRNA level; details: HEK293T, reporter: mCherry (pCS4076), ligand present: no
Summary of the method: as §1

Row | Variant | normalized RNA/DNA level with ligand (log10) [1] | normalized RNA/DNA level without ligand (log10) [2]
1 | GGUCCU | 1.941 ± 0.017 | 1.96 ± 0.061
2 | GGUCCC | 1.92 ± 0.05 | 1.902 ± 0.0045
3 | GGUUGA | 1.94 ± 0.046 | 1.64 ± 0.021
4 | GGUUGU | 1.94 ± 0.065 | 1.76 ± 0.035
5 | AGUGGU | 1.898 ± 0.015 | 1.55 ± 0.056
6 | AGUGGG | 1.89 ± 0.076 | 1.543 ± 0.007
7 | CUAAUU | 1.94 ± 0.043 | 1.869 ± 0.006
8 | CUAAUA | 1.87 ± 0.029 | 1.79 ± 0.026
9 | CGUGCC | 1.97 ± 0.039 | 1.922 ± 0.0033
10 | CGUGCG | 1.95 ± 0.071 | 1.9 ± 0.027
11 | CGUAUG | 1.91 ± 0.035 | 1.84 ± 0.0095
12 | CGUAUC | 1.93 ± 0.07 | 1.902 ± 0.018
13 | CGUAUU | 1.96 ± 0.026 | 1.732 ± 0.015
14 | CGUUGC | 1.96 ± 0.1 | 1.91 ± 0.088
15 | CGUUGA | 1.96 ± 0.024 | 1.834 ± 0.014
16 | CGUUGU | 1.98 ± 0.05 | 1.89 ± 0.059
17 | GGUUAU | 1.94 ± 0.052 | 1.79 ± 0.03
18 | GGUUAA | 1.93 ± 0.062 | 1.77 ± 0.072
19 | CGUGAG | 1.85 ± 0.082 | 1.75 ± 0.011
20 | CGUGAC | 1.916 ± 0.0084 | 1.79 ± 0.04
21 | CGUGAU | 1.9 ± 0.032 | 1.73 ± 0.024
22 | UUAACU | 1.932 ± 0.017 | 1.841 ± 0.012
23 | UUAACA | 1.93 ± 0.059 | 1.9 ± 0.0046
24 | UUAACC | 1.941 ± 0.0056 | 1.921 ± 0.0067

Row | Variant | normalized RNA/DNA level with ligand (log10) [1] | normalized RNA/DNA level without ligand (log10) [2]
25 | AGGUUU | 1.95 ± 0.073 | 1.87 ± 0.026
26 | AGGUUC | 1.939 ± 0.0087 | 1.83 ± 0.026
27 | AGGUUA | 1.93 ± 0.035 | 1.68 ± 0.031
28 | GGUAUU | 1.973 ± 0.0023 | 1.88 ± 0.085
29 | GGUAUC | 1.957 ± 0.017 | 1.82 ± 0.013
30 | GGUAUA | 1.92 ± 0.074 | 1.83 ± 0.024
31 | GGUCUC | 2.006 ± 0.016 | 1.96 ± 0.037
32 | GGUCUG | 1.87 ± 0.06 | 1.71 ± 0.029
33 | GGUCUU | 1.933 ± 0.018 | 1.94 ± 0.025
34 | GGUCAG | 1.94 ± 0.023 | 1.69 ± 0.012
35 | GGUCAA | 1.94 ± 0.036 | 1.83 ± 0.034
36 | GGUCAU | 1.94 ± 0.037 | 1.89 ± 0.041
37 | UUAAUU | 1.94 ± 0.041 | 1.84 ± 0.041
38 | UUAAUC | 1.95 ± 0.017 | 1.96 ± 0.058
39 | UUAAUG | 1.886 ± 0.0055 | 1.737 ± 0.0081
40 | GGUGUU | 1.97 ± 0.051 | 1.88 ± 0.03
41 | GGUGUC | 1.916 ± 0.0061 | 1.846 ± 0.018
42 | UGUGGC | 1.99 ± 0.04 | 1.8784 ± 0.00098
43 | UGUGGU | 1.89 ± 0.037 | 1.68 ± 0.017
44 | UGUGGG | 1.93 ± 0.014 | 1.64 ± 0.035
45 | GUACAC | 1.919 ± 0.0031 | 1.79 ± 0.041
46 | GUACAU | 1.9 ± 0.034 | 1.77 ± 0.056
47 | UGUCCA | 1.89 ± 0.061 | 1.88 ± 0.057
48 | UGUCCG | 1.925 ± 0.0047 | 1.8 ± 0.017

Row | Variant | normalized RNA/DNA level with ligand (log10) [1] | normalized RNA/DNA level without ligand (log10) [2]
49 | UUACAA | 1.96 ± 0.022 | 1.796 ± 0.012
50 | UUACAG | 1.92 ± 0.029 | 1.63 ± 0.036
51 | GGUUCC | 1.99 ± 0.081 | 1.95 ± 0.022
52 | GGUUCA | 1.916 ± 0.0031 | 1.89 ± 0.046
53 | GGUUCU | 1.977 ± 0.018 | 1.9 ± 0.022
54 | GGUUCG | 1.92 ± 0.063 | 1.69 ± 0.051
55 | UGUUGC | 1.943 ± 0.015 | 1.87 ± 0.051
56 | UGUUGA | 1.9 ± 0.021 | 1.674 ± 0.0081
57 | UGUUGG | 1.91 ± 0.058 | 1.53 ± 0.04
58 | UUAAAC | 1.915 ± 0.008 | 1.791 ± 0.01
59 | GGGUUU | 1.951 ± 0.015 | 1.951 ± 0.0082
60 | GGGUUC | 1.95 ± 0.053 | 1.91 ± 0.095
61 | AGUAGG | 1.78 ± 0.051 | 1.368 ± 0.013
62 | AGUAGC | 1.911 ± 0.012 | 1.64 ± 0.08
63 | AGUCCA | 1.95 ± 0.05 | 1.868 ± 0.015
64 | AGUCCG | 1.9 ± 0.09 | 1.528 ± 0.0051
65 | AGUCCC | 1.94 ± 0.026 | 1.931 ± 0.012
66 | CGUUAU | 1.916 ± 0.006 | 1.753 ± 0.011
67 | CGUUAG | 1.944 ± 0.01 | 1.77 ± 0.17
68 | CGUUAC | 1.91 ± 0.082 | 1.717 ± 0.0087
69 | GUAAUA | 1.878 ± 0.0069 | 1.823 ± 0.0023
70 | GGUGAA | 1.9 ± 0.061 | 1.65 ± 0.024
71 | UGUACC | 2 ± 0.033 | 1.92 ± 0.023
72 | UGUACG | 1.929 ± 0.01 | 1.83 ± 0.044

Row | Variant | normalized RNA/DNA level with ligand (log10) [1] | normalized RNA/DNA level without ligand (log10) [2]
73 | UGUAGC | 1.94 ± 0.046 | 1.796 ± 0.0085
74 | UGUAGU | 1.88 ± 0.029 | 1.5 ± 0.071
75 | UGUAGG | 1.895 ± 0.002 | 1.5 ± 0.015
76 | AGGUGU | 1.92 ± 0.028 | 1.49 ± 0.098
77 | AGUUGA | 1.915 ± 0.0047 | 1.63 ± 0.032
78 | AGUUGU | 1.93 ± 0.043 | 1.63 ± 0.076
79 | UGGUUG | 1.962 ± 0.011 | 1.79 ± 0.03
80 | UGGUUA | 1.94 ± 0.044 | 1.871 ± 0.0021
81 | CGUAGC | 1.9509 ± 0.00084 | 1.875 ± 0.0047
82 | CGUAGG | 1.808 ± 0.0097 | 1.334 ± 0.0095
83 | CGUAGU | 1.99 ± 0.086 | 1.87 ± 0.037
84 | CGUAGA | 1.958 ± 0.0094 | 1.8 ± 0.021
85 | UGUCGC | 1.9324 ± 0.0018 | 1.89 ± 0.1
86 | UGUCGA | 1.9 ± 0.061 | 1.65 ± 0.049
87 | AGUGAG | 1.79 ± 0.029 | 1.28 ± 0.096
88 | AGUGAC | 1.912 ± 0.019 | 1.814 ± 0.012
89 | AGUGAA | 1.9 ± 0.025 | 1.66 ± 0.059
90 | CGUUUU | 1.92 ± 0.073 | 1.833 ± 0.014
91 | CGUUUA | 1.89 ± 0.032 | 1.68 ± 0.013
92 | CGUUUG | 1.96 ± 0.067 | 1.864 ± 0.0052
93 | CGUCCA | 1.957 ± 0.0057 | 1.924 ± 0.0032
94 | CGUCCC | 1.97 ± 0.051 | 1.98 ± 0.064
95 | CGUCCU | 2.02 ± 0.035 | 2.02 ± 0.048
96 | CGUCGG | 1.9 ± 0.026 | 1.57 ± 0.035

Row | Variant | normalized RNA/DNA level with ligand (log10) [1] | normalized RNA/DNA level without ligand (log10) [2]
97 | CGUCGA | 1.914 ± 0.011 | 1.85 ± 0.052
98 | CGUCGC | 1.9 ± 0.11 | 1.909 ± 0.01
99 | CGUCGU | 2.05 ± 0.051 | 1.98 ± 0.036
100 | AGUUUU | 1.97 ± 0.077 | 1.947 ± 0.013
101 | AGUUUG | 1.89 ± 0.077 | 1.55 ± 0.035
102 | AGUUUC | 1.92 ± 0.033 | 1.93 ± 0.033
103 | CGGUUU | 1.935 ± 0.017 | 1.791 ± 0.015
104 | CGGUUA | 1.89 ± 0.11 | 1.52 ± 0.045
105 | CGGUUG | 1.97 ± 0.072 | 1.88 ± 0.062
106 | CGUCUC | 2 ± 0.023 | 2.03 ± 0.017
107 | CGUCUG | 1.95 ± 0.11 | 1.957 ± 0.013
108 | CGUCUU | 2.01 ± 0.035 | 1.958 ± 0.018
109 | CGUCUA | 1.93 ± 0.025 | 1.87 ± 0.029
110 | UUAAGU | 1.936 ± 0.0026 | 1.847 ± 0.0087
111 | UUAAGC | 1.94 ± 0.023 | 1.837 ± 0.0055
112 | AGUUAU | 1.89 ± 0.057 | 1.8 ± 0.068
113 | AGUGCG | 1.84 ± 0.02 | 1.365 ± 0.0051
114 | AGUGCU | 1.998 ± 0.013 | 1.85 ± 0.023
115 | AGUGCA | 1.92 ± 0.051 | 1.78 ± 0.03
116 | AGUGCC | 1.94 ± 0.033 | 1.838 ± 0.0064
